From doi:10.1101/2023.08.23.554525 (bioRxiv, 2023) come the findings set out here.

What all share (conditions): both partners purified
Assay [1] has as its target H1 hemagglutinin (A/New Caledonia/20/1999(H1N1)), recombinant HA trimer used for electron microscopy (influenza A virus A/New …, UniProt Q6WG00). Put plainly: cryo-EM structure.
For assay [2], the target named is biotinylated H1 A/Michigan/45/2015 (MI15) HA ectodomain (Influenza A virus A/Michigan/45/2015 …, UniProt A0A1J0CXU0, strain, biotin (site not stated)). The experiment in a line: BLI; Octet Red384; […]; Fab at 1600, 400, 100 and 25 nM; PBS + 1% BSA; 180 s association, 300 s dissociation.
Assay [3] addresses T1, biotinylated H1 A/NewCaledonia/20/1999 (NC99) HA ectodomain (Influenza A virus A/New …, UniProt Q6WG00, strain, biotin (site not stated)). The assay is described as above.
Assay [4] deals with T1, biotinylated H1 A/NewCaledonia/20/1999 …. The experiment in a line: […] (MSD) binding assay; […].

B1: 1-1-1E04 Fab (Fab, V domains shown)
VH: QVQLVQSGAQLRKPGSSVTVSCKASGDTFNSYSIHWVRQAPGQGLEWMGRIIPVFGMTHYAQRFRGRITVSADKSTRTAYMELTSLTSADTAMYYCARDGGDKFHSSGHFETNQGYFDHWGQGALVTVSS
VL: QSVLTQPPSVSGAPGQRVTVSCTGSSSNLGATYEVHWYQQFPGTAPKLLIYGSTNRPSGVPERFSGSKSGTSASLTITGLQAEDEADYYCQSYDTSLRGFYVFGTGTKVTVL
notes: Parent IgG1
With B1, the binding result in assay [1] is “binds”.

B2: 2-2-1G06 Fab (Fab, V domains shown)
VH: QVQLRESGPGLVKPSQTLSLTCTVSGDSISNGGLYWNWIRQRPGRGLEWIGYIYYNGVTTYNPSLRSRIAISLETAKNQLSLRLSSVSAADTAIYYCAREGWVPDYGGRNYYLDFWGQGTLVTVSS
VL: DIQMTQSPSSLSASVGDRVTITCRASHNIQNFLNWYQQKPGKAPKLLIYAASTLQSGVPSRFSGSGSRTDFTLTISSLQPEDFAAYYCQQSYGLPRTFGQGTRLEIK
As for B2, the binding result in assay [1], in assay [2] and in assay [3] was “binds” throughout.

B3: 2-2-1G06 monoclonal antibody (IgG1) (antibody, V domains shown)
VH: QVQLRESGPGLVKPSQTLSLTCTVSGDSISNGGLYWNWIRQRPGRGLEWIGYIYYNGVTTYNPSLRSRIAISLETAKNQLSLRLSSVSAADTAIYYCAREGWVPDYGGRNYYLDFWGQGTLVTVSS
VL: DIQMTQSPSSLSASVGDRVTITCRASHNIQNFLNWYQQKPGKAPKLLIYAASTLQSGVPSRFSGSGSRTDFTLTISSLQPEDFAAYYCQQSYGLPRTFGQGTRLEIK
notes: IgG1; copies: 2 + 2
Regarding B3, the binding result in assay [4] is recorded as “binds”.

B4: 1-1-1F05 Fab (Fab, V domains shown)
VH: QVQLQESGPGLVKPSATLSLTCTLSGGSLSTHYWSWIRQPPGKGLEYIGNIHYSGSTNYNPSLRSRVTISVGTSKNQFSLKLTSVTAADTAVYYCARDAPYSDFLSGVETGWFDPWGQGTLVIVSS
VL: EIVMTQSPATLSVSPGERATLSCRASQSVSSNLAWYQQKPGQAPRLLIYGASTRATGIPARFSGSGSGTDFTLTISSLQSEDFAVYSCQQYNNWPWTFGQGTKVEIK
notes: source: Expi293, transfected, IgG purified (Protein A); Fab by papain digestion, SEC
With B4, the binding result in assay [1] is “binds”.
